Measured values: paper PMC3678298, “Catalytic preference of Salmonella typhimurium LT2 sialidase for N-acetylneuraminic acid residues over N-glycolylneuraminic acid residues^” (FEBS Open Bio, 2013)

System: Cc1cc(=O)oc2cc(O[C@@]3(C(=O)O)C[C@H](O)[C@@H](NC(=O)CO)[C@H]([C@H](O)[C@H](O)CO)O3)ccc12
Experiment: purified protein
Conditions: 80 mM sodium acetate pH 6.0, 80 mM NaCl, 0.8 mg/ml BSA, 37 °C, 10 mU/ml enzyme
Text: 4MU fluorescence; Lineweaver-Burk on STSA (Salmonella typhimurium LT2 sialidase)

STSA (Salmonella typhimurium LT2 sialidase) (Salmonella enterica subsp. enterica serovar Typhimurium str. LT2)
Km: 3.10 mM
kcat: 40 s⁻¹
kcat/Km: 13100 M⁻¹ s⁻¹
